Assay [1] concerns SW620 cells. Briefly: Chemical inhibition of Notch signaling: E-cadherin staining of β2 ECD-treated SW620 cells. Type of assay: cell-based, human. On the procedure: Vimentin and actin cytoskeleton (rhodamine-phalloidin): cells were fixed in 4% paraformaldehyde for 20 minutes at room temperature and permeabilzed with 0.05% saponin for 5 minutes at room temperature. For β2, REST, cleaved-Notch1 NICD and E-cadherin staining: cells were fixed in methanol at 4° C. for 2 minutes. Primary antibody incubation was at room temperature for 1 hour (for vimentin staining), or for 15 minutes (for rhodamine-phalloidin staining) or at 37° C. for 1 hour (for β2, REST, cleaved-Notch1 NICD and E-cadherin staining). Secondary antibody incubation was at room temperature for 30 minutes. […]
Images were converted from Photoshop format to Tif in Photoshop CS2 (version 9.0.2, Adobe; San Jose, Calif.). […] Typically, 5 independent regions were analyzed and combined for each analysis.
Activation of Notch signaling requires cleavage of the receptor by both an ADAM protease and gamma-secretase to release the Notch intracellular domain (NICD). […] SW620 cells were mixed with DMSO (vehicle control) or the specific gamma-secretase inhibitor DAPT (N—[N-(3,5-difluorophenylacetyl-L-alanine)]-S-phenylglycine t-butylester) at 500 nM in DMSO, treated with β2 ECD in conditioned media, and analyzed for loss of E-cadherin. […]

The test system of assay [2] is SW620 cells. Briefly: Stimulation of SW620 cells with Notch ligands (co-culture or plate-bound) for EMT induction. To be noted: exogenous ligand in trans by co-culture or plate-bound; data not shown. The assay is classed as cell-based, human.
Another assay concerns HEK293 cells. Briefly: β2 ECD induced phenotype assay in HEK293. Type of assay: cell-based. Conditions: HEK293, do not express Notch1; FIG. 11A. How it is done: (§1) Vimentin and actin cytoskeleton (rhodamine-phalloidin): cells were fixed in 4% paraformaldehyde for 20 minutes at room temperature and permeabilzed with 0.05% saponin for 5 minutes at room temperature. For β2, REST, cleaved-Notch1 NICD and E-cadherin staining: cells were fixed in methanol at 4° C. for 2 minutes. Primary antibody incubation was at room temperature for 1 hour (for vimentin staining), or for 15 minutes (for rhodamine-phalloidin staining) or at 37° C. for 1 hour (for β2, REST, cleaved-Notch1 NICD and E-cadherin staining). Secondary antibody incubation was at room temperature for 30 minutes. Antibodies used were as following: α-ankyrin monoclonal antibody (Chemincon International, Temecula, Calif.); α-vimentin monoclonal antibody (Sigma-Aldrich, St. Louis, Mo.); rhodamine-phalloidin (Molecular Probes, Eugene, Oreg.), α-REST polyclonal antibody (Upstate, Lake Placid, N.Y.), α-E-cadherin monoclonal antibody (Invitrogen, Carlsbad, Calif.), α-Notch1 (Val1744 peptide, detects both intact and cleaved Notch1 NICD) (Cell Signaling, Danvers, Mass.) or α-β2 monoclonal antibody (Genentech, Inc.). Secondary antibodies were as follows: Cy3-conjugated rabbit α-mouse IgG or Cy3-conjugated donkey α-rabbit IgG (Jackson Lab, Bar Harbor, Me.). Slides were mounted with Vectashield mounting media with DAPI (4′,6-diamidino-2-phenylindole) (Vector Lab, Burlingame, Calif.). […]

The test system of assay [3] is SW620 cells. Briefly: E-cadherin and vimentin staining of SW620 cells treated with β2 ECD. Type of assay: cell-based, human. On the procedure: as §1
Assay [4] deals with T1, Notch1 ECD (EGF repeats 6-36) (Homo sapiens, UniProt P46531).
T1 construct: Notch1 ECD region containing the majority of the EGF repeat region (repeats 6-36); FLAG (C)
T1 sequence (P46531 218-1426 limits assumed): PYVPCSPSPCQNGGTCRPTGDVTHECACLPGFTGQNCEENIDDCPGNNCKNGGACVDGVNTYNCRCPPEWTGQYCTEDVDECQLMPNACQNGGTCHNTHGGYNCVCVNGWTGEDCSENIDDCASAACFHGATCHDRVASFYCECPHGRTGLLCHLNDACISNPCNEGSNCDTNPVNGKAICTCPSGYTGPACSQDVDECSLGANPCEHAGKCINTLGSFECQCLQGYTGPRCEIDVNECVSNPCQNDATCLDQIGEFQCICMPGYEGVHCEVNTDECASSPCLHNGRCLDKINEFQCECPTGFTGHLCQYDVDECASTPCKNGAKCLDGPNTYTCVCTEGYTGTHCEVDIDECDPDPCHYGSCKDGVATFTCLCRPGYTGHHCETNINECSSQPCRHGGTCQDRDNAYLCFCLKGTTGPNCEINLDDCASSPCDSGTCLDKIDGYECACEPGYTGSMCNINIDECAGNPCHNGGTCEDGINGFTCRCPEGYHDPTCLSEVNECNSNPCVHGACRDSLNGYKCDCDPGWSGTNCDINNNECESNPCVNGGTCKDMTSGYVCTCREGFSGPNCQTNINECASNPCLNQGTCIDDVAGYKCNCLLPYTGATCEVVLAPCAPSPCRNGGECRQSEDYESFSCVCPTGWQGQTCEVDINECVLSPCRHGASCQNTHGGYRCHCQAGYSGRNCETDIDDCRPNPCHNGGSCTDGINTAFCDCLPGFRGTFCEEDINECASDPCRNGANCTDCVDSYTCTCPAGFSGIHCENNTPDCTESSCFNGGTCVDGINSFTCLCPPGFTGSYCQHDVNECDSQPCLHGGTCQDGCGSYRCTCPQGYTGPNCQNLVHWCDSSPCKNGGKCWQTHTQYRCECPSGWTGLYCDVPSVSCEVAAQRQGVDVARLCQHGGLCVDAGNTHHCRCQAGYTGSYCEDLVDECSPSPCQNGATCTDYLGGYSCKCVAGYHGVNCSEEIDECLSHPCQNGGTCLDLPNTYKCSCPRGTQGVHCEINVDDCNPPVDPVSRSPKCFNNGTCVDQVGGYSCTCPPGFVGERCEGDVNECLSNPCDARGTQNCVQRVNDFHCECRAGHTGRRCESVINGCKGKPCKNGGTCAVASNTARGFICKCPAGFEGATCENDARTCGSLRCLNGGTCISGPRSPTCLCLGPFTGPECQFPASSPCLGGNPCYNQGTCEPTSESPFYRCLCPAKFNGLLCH
The assay can be described thus: Direct binding of β2 ECD and Notch1 ECD (Ni-NTA pull-down, immunoblot). To be noted: approximately 1 nM Notch1 ECD and 20 nM β2 ECD; vs control conditioned media with irrelevant histidine-tagged protein. On the procedure:
Immunoprecipitation: cells were removed from culture plates using 5 mm EDTA and lysed in TBS buffer containing 0.5% NP-40, EDTA-free protease inhibitor (Roche Diagnostics, Indianapolis, Ind.) and 1 mm PMSF. The cell lysate was incubated with pre-saturated protein G-agarose (Roche Diagnostics, Indianapolis, Ind.) at 4° C. for 1.5 hour followed by incubation with α-β2 monoclonal antibody at 4° C. for 2 hours. This cell lysate and antibody mixture was then incubated with pre-saturated protein G-agarose at 4° C. overnight. The agarose was collected and proteins were eluted in Tris-Glycine gel loading buffer (Invitrogen, Carlsbad, Calif.) for immunoblot analysis. Direct binding: conditioned media was collected as described above, incubated with FLAG-tagged Notch1 ECD:6-36 (5 μg) in 15 ml for 2 hours at room temperature with shaking 50 μl of Ni-NTA agarose bead slurry (Qiagen) was added with incubation for 2 hours at room temperature with shaking. Ni-NTA beads were collected by centrifugation and washed 3 times with PBS. Alternatively, conditioned media was treated with Ni-NTA beads to enrich for β2 and the resulting slurry incubated with Notch1 ECD:6-36 (5 μg) in 1 ml PBS and incubated and washed as described. Samples were eluted into 2× loading buffer. […]

Assay [5] concerns Twist1 and HES1 transcript. Briefly: Transcript expression (microarray, RT-PCR) in SW620 cells treated with β2 ECD. The assay is classed as cell-based, human. On the procedure: HES1 and Twist1 transcript expression from 0-72 hours in SW620 cells treated β2 ECD in conditioned medium. RNA was extracted from cells at 0, 6, 18, 24, 48, and 72 hour timepoints and microarray analysis performed on Agilent Whole Human Genome microarrays versus a universal reference RNA. Log ratio (Y-axis) is plotted against time in hours (X-axis). Transcript data for 2 independent HES1 oligonucleotide probe sequences and for Twist1 are shown.
RT-PCR analysis of Twist1 transcript expression at 0, 6, and 18 hr timepoints in SW620 cells treated with β2 ECD. Twist1 expression was normalized to housekeeping gene RPL19.

Assay [6] concerns naïve CHO cells, MDCK cells, HUVEC (endothelial), or tumor cell lines NCI-H226, SW620, SW480, and PC-3. Briefly: β2 ECD induced phenotype assay (actin cytoskeleton, morphology). Type of assay: cell-based. To be noted: conditioned media containing β2 ECD, 48-72 hours. On the procedure: as §1
For assay [7], the target named is T2, Notch1 ECD fragment containing EGF repeats 10-21 (Homo sapiens, UniProt P46531).
T2 construct: purified fragments of the Notch1 ECD, containing either EGF repeats 10-21 or 22-33; FLAG (C)
T2 sequence (P46531 372-827 limits assumed): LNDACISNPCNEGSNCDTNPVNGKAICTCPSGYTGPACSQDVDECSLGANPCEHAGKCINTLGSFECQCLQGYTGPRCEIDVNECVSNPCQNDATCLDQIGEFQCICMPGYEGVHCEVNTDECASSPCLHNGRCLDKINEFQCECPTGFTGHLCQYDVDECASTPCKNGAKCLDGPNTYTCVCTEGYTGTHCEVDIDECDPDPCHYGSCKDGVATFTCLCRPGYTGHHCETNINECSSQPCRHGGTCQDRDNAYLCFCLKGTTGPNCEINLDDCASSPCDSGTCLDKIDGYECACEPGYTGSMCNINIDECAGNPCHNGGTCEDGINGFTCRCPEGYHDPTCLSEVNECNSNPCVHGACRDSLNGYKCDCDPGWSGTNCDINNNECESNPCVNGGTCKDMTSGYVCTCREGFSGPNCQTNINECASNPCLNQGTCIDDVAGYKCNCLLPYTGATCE
Briefly: Direct binding of β2 ECD and Notch1 ECD fragment EGF 10-21. Conditions: α-FLAG immunoblot. (In general: Immunoblotting shows a protein as a band on a membrane.)

For assay [8], the target named is T3, Notch1 ECD fragment containing EGF repeats 22-33 (Homo sapiens, UniProt P46531).
T3 construct: purified fragments of the Notch1 ECD, containing either EGF repeats 10-21 or 22-33; FLAG (C)
T3 sequence (P46531 829-1305): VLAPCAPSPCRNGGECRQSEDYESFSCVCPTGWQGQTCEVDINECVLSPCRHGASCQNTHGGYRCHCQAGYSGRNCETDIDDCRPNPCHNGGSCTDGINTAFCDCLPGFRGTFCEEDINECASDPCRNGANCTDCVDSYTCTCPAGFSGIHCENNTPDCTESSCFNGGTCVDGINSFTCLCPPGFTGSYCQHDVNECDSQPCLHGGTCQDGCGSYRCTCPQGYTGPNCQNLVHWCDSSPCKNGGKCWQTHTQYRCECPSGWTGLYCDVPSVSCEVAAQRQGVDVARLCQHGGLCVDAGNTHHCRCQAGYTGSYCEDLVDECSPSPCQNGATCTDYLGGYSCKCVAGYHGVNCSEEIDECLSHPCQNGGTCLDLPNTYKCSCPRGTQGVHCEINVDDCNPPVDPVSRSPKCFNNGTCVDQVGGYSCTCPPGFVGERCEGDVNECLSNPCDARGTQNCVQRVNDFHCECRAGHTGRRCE
Briefly: Direct binding of β2 ECD and Notch1 ECD fragment EGF 22-33. To be noted: α-FLAG immunoblot.

A further assay deals with CHO cells. The assay can be described thus: Methotrexate resistance in CHO cells (trypan blue). The assay is classed as cell-based, Chinese Hamster. Conditions: 200 nM methotrexate for 48 hours; 60% of control-treated cells died; p=0.01. How it is done:
Resistance to starvation: SW620 cells were seeded into 6 well plates at 25% confluence in complete media overnight. This media was replaced the next morning with media lacking FBS. For the assay, cells were detached using trypsin, washed, and stained in 0.4% Trypan Blue (Invitrogen, Carlsbad, Calif.). Total cells and dead cells were counted using a hemocytometer. Assays were performed in triplicate. Doxorubicin resistance: 2×10^4 SW620 cells were seeded in 96 well clear bottom black plates (Corning Inc., Corning, N.Y.) with serial dilutions of doxorubicin hydrochloride (Sigma-Aldrich, St. Louis, Mo.) and incubated for 5 days. Cell viability was measured by using Cell Titer Glo Luminescent Cell Viability Kit (Promega, Madison, Wis.). Luminescence was quantified using an Envision 2103 multilabel reader (PerkinElmer, Finland). Methotrexate resistance: 5×10^5 CHO cells were seeded in 6-well plates with β2 ECD in conditioned medium or control conditioned medium containing 200 nm methotrexate (Genentech Inc.). Cells were detached from the plate and stained with Trypan Blue 0.4% (Invitrogen, Carlsbad, Calif.) as described.

Another assay deals with Notch1 NICD. The assay can be described thus: Translocation of Notch1 NICD to nucleus (confocal immunofluorescence). Type of assay: cell-based, human. To be noted: SW620 cells 6 hours after treatment with β2 ECD in conditioned media; 100 um Lactacystin. On the procedure:
as §1, with “Inc.).” for “Inc.). Secondary antibodies were as follows: Cy3-conjugated rabbit α-mouse IgG or Cy3-conjugated donkey α-rabbit IgG (Jackson Lab, Bar Harbor, Me.). Slides were mounted with Vectashield mounting media with DAPI (4′,6-diamidino-2-phenylindole) (Vector Lab, Burlingame, Calif.).”
Activation of Notch1 by ligands results in cleavage to release the NICD, which translocates to the nucleus, and in concert with other proteins, directly regulates Notch target gene transcription. We analyzed whether nuclear NICD could be detected in cells in response to β2. […]

The subject of assay [9] is SW620 cells. The assay can be described thus: Migration assay of SW620 cells treated with β2 ECD. Conditions: β2 ECD in conditioned media, 0.1% FBS, 18 hours; p=0.0009. The assay is classed as cell-based, human. How it is done:
Migration assays were performed using the HTS FluoroBlock Multiwell insert system with […] (BD Biosciences, Bedford, Mass.). 10^5 cells/well were seeded into the upper wells and FBS was added to the bottom wells. After 18 hr, cells that migrated to the other side of the trans-well membrane were stained in 10 um YO-PRO-1 iodide (Invitrogen, Eugene, Oreg.) and quantitated using the fluorescence plate reader Spectra Max GeminiEM (Molecular Devices, Sunnyvale, Calif.).

As to `C[C@H](NC(=O)Cc1cc(F)cc(F)c1)C(=O)NC(C(=O)OC(C)(C)C)c1ccccc1` (stereo partly drawn) [DAPT, N—[N-(3,5-difluorophenylacetyl-L-alanine)]-S-phenylglycine t-butylester], the E-cadherin staining entry in the assay with SW620 cells [1] (DAPT 500 nM in DMSO, SW620 cells treated with β2 ECD in conditioned media) is “remained E-cadherin positive”. For the same molecule, the “E-cadherin levels, quantitative analysis of staining” value in the assay on SW620 cells [1] (DAPT-treated vs DMSO, β2-ECD treated cells, p=0.00001) was “significantly different”.
Regarding “Jagged1: Notch ligand of the Jagged family, added exogenously (co-culture or plate-bound)”, the “Induction of EMT or related morphological change” value with SW620 cells [2] was “no evidence of induction of EMT or related morphological change”.

B1: β2 ECD: C-terminal polyhistidine-tagged (HIS8) extracellular domain of β2 (SCN2B) secreted from CHO cells, used in conditioned media (protein)
chain: MEVTVPATLNVLNGSDARLPCTFNSCYTVNHKQFSLNWTYQECNNCSEEMFLQFRMKIINLKLERFQDRVEFSGNPSKYDVSVMLRNVQPEDEGIYNCYIMNPPDRHRGHGKIHLQVLMEEPPERDSTVAHHHHHHHH
With B1, the “Phenotypic change in response to β2” value in the assay on HEK293 cells is given as “no phenotypic change”. In addition, the “E-cadherin protein levels (immunofluoresence and FACS)” value with SW620 cells [3] (β2 ECD in conditioned media for 48 hours) is “greatly reduced E-cadherin protein levels”. For the same molecule, the “Vimentin protein expression (immunofluorescent staining)” value with SW620 cells [3] (β2 ECD in conditioned media, from otherwise undetectable levels) is reported as “substantial increase in vimentin protein expression”. In assay [4], the “Binding to FLAG-tagged Notch1 ECD (repeats 6-36)” value is “recovery of tagged Notch1”. In addition, in assay [5] (6 hours after treatment with β2 ECD, oscillating at subsequent timepoints), the Twist1 transcript expression result is “induction of Twist1 transcript”. In addition, in [5] (at 6 hours after β2 ECD in conditioned media), the HES1 transcript expression result is “elevated HES1 transcript”. Besides, the “Phenotypic changes (elongation, enlargement, actin cytoskeleton remodeling)” value in assay [6] is “capable of inducing phenotypic changes”. In addition, the “Binding to Notch1 ECD fragment EGF repeats 10-21” value in assay [7] is recorded as “specifically bound”. Moreover, in assay [8], the “Binding to Notch1 ECD fragment EGF repeats 22-33” value is on record as “no detectable binding”. The “Cell death as percentage of total cells” value in the assay on CHO cells was 10%. In the assay on Notch1 NICD, the “Nuclear Notch1 NICD staining” value is given as “nuclear NICD was detected”. The “Migration of SW620 cells across transwell membrane” value in the assay on SW620 cells [9] is recorded as “significant increase in migration”.

The record behind these values is US8563695B2, “Antibodies that bind β2” (Genentech, Inc., priority 2007, dated 2013).
